Test results published in patent US9333240B2, “Compounds for improving nutritional status, cognition and survival” (YISSUM RESEARCH DEVELOPMENT COMPANY OF THE HEBREW …, priority 2005, dated 2016).
Entries after “also recorded” stand apart in the source; their conditions may differ.

Experiments:
Bcl-2, Bax, PARP = assay: Hippocampal apoptosis proteins by RT-PCR and immunoblotting; format: in vivo, mice; conditions: leptin 1 mg/kg, DR to 40%, immunoblotting
Procedure: Total hippocampal RNA was extracted using […] reagent according to the manufacturer's instructions and reverse transcribed. Primers specific for OBRlong were […] NO: 1) and […] NO: 6), for […] NO: 2), and […] NO: 7), for BAX […] NO: 3) and […] NO: 8) for Bcl-2 […] NO: 4) and […] NO: 9) and for actin […] NO: 5) and […] NO: 10). […] Total hippocampal Protein was extracted using […] reagent. Aliquots of the clarified lysates containing […] were denatured in Laemmli sample buffer (6% SDS 30%, glycerol, 0.02% bromophenol blue, 200 mM Tris-HCl (pH 6.8), and 250 mM-mercaptoethanol, at 95° C. for 5 min. The samples were resolved by SDS-PAGE (10% acrylamide), and blotted onto nitrocellulose membrane. Non-specific binding in a Western blot analysis was prevented by immersing the membranes in blocking buffer (5% nonfat dry milk in Tris-buffer saline-Tween 20 (TBS-T)), for 2 h at room temperature. The membranes were then exposed to the indicated antibodies diluted 1:1000 for 1 h at room temperature. AMPK, phospho-AMPK and PARP were obtained from Cell Signaling. Bax, bcl-2 and actin were from Santa Cruz Biotechnology Inc. (Santa Cruz, Calif.). The blots were rinsed in TBS-T and then incubated with horseradish peroxidase-conjugated goat anti-mouse antibodies 1:10,000 for 1 h at room temperature. Antibody-antigen complexes were visualized by detecting enhanced chemiluminescence with X-ray film.

AMPK = assay: Hippocampal AMPK phosphorylation by immunoblotting; format: in vivo; conditions: 40% diet restricted mice, 1 mg/kg leptin for 72 h
Procedure: Total hippocampal Protein was extracted using TriFast reagent. Aliquots of the clarified lysates containing […] were denatured in Laemmli sample buffer (6% SDS 30%, glycerol, 0.02% bromophenol blue, 200 mM Tris-HCl (pH 6.8), and 250 mM-mercaptoethanol, at 95° C. for 5 min. The samples were resolved by SDS-PAGE (10% acrylamide), and blotted onto nitrocellulose membrane. Non-specific binding in a Western blot analysis was prevented by immersing the membranes in blocking buffer (5% nonfat dry milk in Tris-buffer saline-Tween 20 (TBS-T)), for 2 h at room temperature. The membranes were then exposed to the indicated antibodies diluted 1:1000 for 1 h at room temperature. AMPK, phospho-AMPK and PARP were obtained from Cell Signaling. Bax, bcl-2 and actin were from Santa Cruz Biotechnology Inc. (Santa Cruz, Calif.). The blots were rinsed in TBS-T and then incubated with horseradish peroxidase-conjugated goat anti-mouse antibodies 1:10,000 for 1 h at room temperature. Antibody-antigen complexes were visualized by detecting enhanced chemiluminescence with X-ray film.
Leptin is a key hormone in the regulation of energy balance and is known to modulate AMPK activity in other systems^15,16. The manner by which leptin may interact with AMPK in modulating brain function was further investigated. Leptin was analyzed functionality under different degrees of diet restriction. […]

activated caspase-3 = assay: Activated caspase-3 immunohistochemistry in hippocampal sections; format: in vivo, mice; conditions: 40% DR, leptin 1 mg/kg
Procedure: Mice were perfused intracardially with 4% paraformaldehyde in PBS. Their brains were removed, fixed further in the same solution. […] sections, cut on the same day, were de-waxed and hydrated through graded ethanols, cooked in 25 mM citrate buffer pH 6.0 in a pressure cooker at […] for 3 min (decloaking chamber, Biocare Medical), transferred into boiling deinoized water and left to cool down for 20 min. After 5 min treatment in 3% H2O2, slides were incubated with rabbit polyclonal activated caspase-3 antibody diluted 1:100 in CAS-Block (Zymed) for 3 h at room temperature, washed three times with Optimax (Biogenex), incubated for 30 min with anti rabbit Envision_(DAKO) and developed with DAB for 15 min.
The effects of leptin administration (restoration) on neural function in diet-restricted mice was investigated. Mice were assigned at random to 4 groups. The groups were kept under ad libitum or DR to 40% for 10 days and injected daily with either 1 mg/kg leptin or saline for 5 days during the second week. […] Then the effects on the concentrations of NE and dopamine in the hippocampus were evaluated. […] To elucidate the cellular mechanisms involved in leptin effects, proteins associated with apoptosis were determined by immunoblotting. […] Activated caspase-3 could not be detected in the hippocampi of control animals.

Cultured cardiomyocytes [1] = assay: Cardiomyocyte viability after glucose deprivation (WST); format: cell-based; conditions: glucose deprivation for 1, 3, 6 h
Procedure: Cultured cardiomyocytes were exposed to glucose deprivation for 1, 3, 6 h and were treated with Leptin as described above. Cell viability was analyzed by WST.

AKT = AKT phosphorylation in glucose-deprived cardiomyocytes; format: cell-based; conditions: glucose deprivation for 1, 3, 6 h
Procedure: Cultured cardiomyocytes exposed to glucose deprivation for 1, 3, 6 h were treated with Leptin. Stat-3 phosphorylation (A) and AKT phosphorylation (measure for cell survival and cardioroprotection) were measured by protein analysis.

Cultured cardiomyocytes [2] = assay: Apoptosis of glucose-deprived cardiomyocytes by FACS; format: cell-based; conditions: glucose deprived condition for 1, 2, 6 h, 1 ug/ml Leptin
Procedure: In another experiment cultured cardiomyocytes exposed to glucose deprived condition for 1, 2, 6 h were treated with 1 ug/ml Leptin. Apoptotic cell death was detected by FACS analysis.

mice [3] = assay: Neurological score in TAA model of hepatic encephalopathy; format: in vivo; conditions: TAA treated mice, Leptin daily for 5 days
Procedure: Mice were treated with TAA, then 1 mk/kg Leptin was administered daily for 5 days and neurological score was evaluated

mice [4] = assay: Eight-arm maze in LPS administered mice; format: in vivo; conditions: 1 mg/kg leptin daily
Procedure: The animals were placed in an eight-arm maze, which is a scaled-down version of that developed for rats (Randt et al, (1971) Science 172, 489-499; Ziv et al (1994) Neuroscience Lett, 170, 136-140). We used water deprivation achieved by limiting water consumption overnight and a reward of 50 μl of water presented at the end of each arm. The mice were tested until they made entries into all eight arms or until they completed 24 entries, whichever came first. […] Maze performance was calculated each day for five consecutive days. Results were presented as area under the curve (AUC) utilizing the formula: (day 2+day 3+day 4+day 5)−4*(day 1).
LPS administered mice were daily treated with 1 mg/kg leptin and then subjected to the eight arm maze.

B1: leptin: Murine leptin provided by A. Gertler; adipokine hormone, full leptin is a 146 amino acid sequence (protein, UniProt P41160 22-167, looked up)
Leptin: VPIQKVQDDTKTLIKTIVTRINDISHTQSVSAKQRVTGLDFIPGLHPILSLSKMDQTLAVYQQVLTSLPSQNVLQIANDLENLRDLLHLLAFSKSCSLPQTSGLQKPESLDGVLEASLYSTEVVALSRLQGSLQDILQQLDVSPEC
Bax levels (Bcl-2, Bax, PARP): reducing
PARP cleavage (Bcl-2, Bax, PARP): reduction in the cleaved subunit
bcl-2 level (Bcl-2, Bax, PARP): up-regulation
hippocampal AMPK phosphorylation (AMPK): significantly reduced
activated caspase-3 immunoreactivity (activated caspase-3): significantly reduced the immunoreactivity
cell viability (WST) (Cultured cardiomyocytes [1]): increased significantly the viability; also recorded: induces survival
cell survival as measured by AKT phosphorylation (AKT): improved the cell survival
apoptotic cell death (FACS) (Cultured cardiomyocytes [2]): reduced apoptotic death
apoptotic cell death (FACS) (Cultured cardiomyocytes [2]; listed as Leptin): decreased apoptosis
neurological score (mice [3]): reversed impaired neurological score
cognitive function in the eight arm maze (mice [4]): reverse cognitive function in diseased animals to the level of health controls; also recorded: improved impaired cognitive function
